The source of these data is patent US20090324601A1 (published 2009).

Sequences and labels used below:
B1: 2.2002.3 (antibody, V domains shown)
VH: QVQLVESGGGVVQPGRSLRVSCAASGFMFRSYGMHWVRQAPGKGLEWVAVIWHDGSNKNHGDSVKGRFTISRDNSKNTLYLQMNSLRAEDTAVYYCARGRLAGGGPYYYYYYGMDVWGQGTTVTVSS
VL: not shown
B2: 2.1954.2 (antibody, V domains shown)
VH: QVQLVESGGGVVQPGRSLRLSCAASGFSFSIYGMHWVRQAPGKGLEWVAVIWFDGSNKYYADSVKGRFTISRDNSKNTLYLQMNSLRAEDTALYYCARDKASYYGSGMDYWGQGTLVTVSS
VL: EIVLTQSPGTLSLSPGERATLSCRASQSVSSTYLAWYQHRPGQAPRLLISGASRRATGIPDRFSGSGSGTDFTLTISRLEPEDFAVYYCQHYGSSFTWTFGQGTKVEIK
B3: 3.87.1.1 (antibody, V domains shown)
VH: QVQLVESGGGVVQPGRSLRLSCAASGFTFSSYGMHWVRQAPGKGLEWVAVIWYDRSNKYYADSVKGRFTISRDNSKNTLYLQMNSLRAEDTAVYYCAGGRSRGAFDYWGQGTLVTVSS
VL: DIQMTQSPSSVSASVGDRVTITCRASQGISSWLAWYQQKPGKAPKLLIFAASSLQSGVPSRFSGSGSGTDFTLTISSLQPEDFATYYCQRTNSFPRTFGQGTKVEIK
B4: 3.818.4 (antibody, V domains shown)
VH: EVQLVESGGGLVQPGGSLRLSCAASGFTFSSYSMNWVRQAPGKGLEWVSYISGSSTTMYYADSVKGRFTISRDNAKNSLYLQMNSLRDEDTAVYYCARLRHFDWSYAFDIWGQGTMVTVSS
VL: DIQMTQSPSSVSTSVGDRVTITCRASQGISSWLAWYQQRPGKAPKLLIYAASSLQSGVPSRFSGSGSGTDFTLTISSLQPEDFATYFCQQATSFPFTFGPGTKVGIK
B5: 3.457.3.1 (antibody, V domains shown)
VH: QVQLVESGGGVVQPGRSLRLSCAASGFTFSSYGMHWVRQAPGKGLEWVAVIWYDRSNKYYADSVKGRFTISRDNSKNTLYLQMNSLRAEDTAVYYCAGGRSRGAFDFWGQGTLVTVSS
VL: DIQMTQSPSSVSASVGDRVTITCRASQGISSWLAWYQQKAGKAPKLLIYSASSLQSGVPSRFSGSGSGTDFTLTISSLQPEDFATYYCQRTNSFPRTFGQGTKVEIK
B6: 3.472.1.1 (antibody, V domains shown)
VH: QVQLVESGGGVVQPGRSLRLSCAASGFTFSSYGMHWVRQAPGKGLEWVAVIWYDRSNKYYVDSVKGRFTISRDNSKNTLYLQMNSLRAEDTAVYYCAGGRSRGAFDYWGQGTLVTVSS
VL: DIQMTQSPSSVSASVGDRVTITCRASQDISSWLAWYQQKPGKAPKLLIFAASSLQSGVPSRFSGSGSGTDFTLTISSLQPEDFATYYCQRTSSFPRTFGQGTKVEIK
B7: 5.9.3 (antibody, V domains shown)
VH: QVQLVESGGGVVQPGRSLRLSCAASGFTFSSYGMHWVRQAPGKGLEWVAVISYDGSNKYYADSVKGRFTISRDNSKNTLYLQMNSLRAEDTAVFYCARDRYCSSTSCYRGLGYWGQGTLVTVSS
VL: DIQMTQSPSSLSASVGDRVSITCRASQGIRNDLGWYQQKPGKAPTRLIYAASSLQSGVPSRFSGSGSGTEFTLTISSLQPEDFASYYCLQHNSFPWTFGQGTKVEIK
B8: 3.23.2 (antibody, V domains shown)
VH: EVQLVESGGGLVQPGGSLRLSCAASGFTFSNFWMSWVRQAPGKGLEWVANIKHGGSEKYYVDSVKGRFTISRDNAKNSLYLQMNRLRAEDTAVYYCARDPMYYFDYWGQGTLVTVSS
VL: DIQMTQSPSSLSASVGDRVTITCRASQDIRNDLDWYQQKPGKAPKRLIYAASSLQSGVPSRFSGSGSGTEFTLTISSLQPEDFATYYCLQHNGYPRSFGQGTKLEIK
B9: 5.1.1.1 (antibody, V domains shown)
VH: QVQLVQSGAEVKKPGASVKVSCKASGYTFTSYDINWVRQATGQGLEWMGWMNPNSGNTGYAQQFQGRVTMTRNTSITTAYMELSSLRSEDTAVYYCAREEYSSSLFDSWGQGTLVTVSS
VL: DIQMTQSPSSLSASVGDRVTITCRASQGIRNNLGWFQQKPGKAPKRLIYAASSLQSGVPSRFSGSGSGTKFTLTISSLQPEDFATYFCLQHNRYPLTFGGGTKVEIK
B10: 2.1576.1.2 (antibody, V domains shown)
VH: EVQLVESGGGLVQPGGSLRLSCAASGFTFSSYWMSWVRQAPGKGLEWVANIKQDGSEKYYVDSVKGRFTISRDNAKNSLYLQMNSLRAEDTAVYYCARWGVFGSGSYYIPFDYWGQGTLVTVSS
VL: DIQMTQSPSSLSASVGDRVTITCRASQGIRNYLAWFQQKPGKAPKSLIYAASSLQSGVPSTFSGSGSGTHFTLTISSLQPEDFASYFCQQYEIYPLTFGGGTKVEIK
B11: 2.2002.3 (antibody, V domains shown)
VH: QVQLVESGGGVVQPGRSLRVSCAASGFMFRSYGMHWVRQAPGKGLEWVAVIWHDGSNKNHGDSVKGRFTISRDNSKNTLYLQMNSLRAEDTAVYYCARGRLAGGGPYYYYYYGMDVWGQGTTVTVSS
VL: not shown
B12: 2.1954.2 (antibody, V domains shown)
VH: QVQLVESGGGVVQPGRSLRLSCAASGFSFSIYGMHWVRQAPGKGLEWVAVIWFDGSNKYYADSVKGRFTISRDNSKNTLYLQMNSLRAEDTALYYCARDKASYYGSGMDYWGQGTLVTVSS
VL: EIVLTQSPGTLSLSPGERATLSCRASQSVSSTYLAWYQHRPGQAPRLLISGASRRATGIPDRFSGSGSGTDFTLTISRLEPEDFAVYYCQHYGSSFTWTFGQGTKVEIK
B13: 3.23.3 (antibody, V domains shown)
VH: QVQLVESGGGVVQPGRSLRLSCAASGFTFSRYGMHWVRQAPGKGLEWVAVIWYDGRNKYYVDSVKGRFTISRDNSKNTLYLQMNSLRAEDTAVYYCVGVGITVTGAFDYWGQGTLVTVSS
VL: EIVMTQSPATLSVSPGERATLSCRASQSVRSNLAWYQQKPGQAPRLLIYGASTRVTDIPTRFSGSGSGTEFTLSISSLQSEDFAVYYCQQYNNWPRTFGQGTKVEIK
B14: 4.16.2 (antibody, V domains shown)
VH: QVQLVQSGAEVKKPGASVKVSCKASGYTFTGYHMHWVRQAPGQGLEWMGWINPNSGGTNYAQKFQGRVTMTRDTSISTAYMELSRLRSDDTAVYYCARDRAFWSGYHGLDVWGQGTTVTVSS
VL: DIQMTQSPSSLSASVGDRVTITCRASQVIANYLAWYQQKPGKVPKLLIYAASTLQSGVPSRFSGSGSGTDFTLTISSLQPEDVATYYCHTYKSAPWTFGQGTKVEIK
B15: 3.818.4 (antibody, V domains shown)
VH: EVQLVESGGGLVQPGGSLRLSCAASGFTFSSYSMNWVRQAPGKGLEWVSYISGSSTTMYYADSVKGRFTISRDNAKNSLYLQMNSLRDEDTAVYYCARLRHFDWSYAFDIWGQGTMVTVSS
VL: DIQMTQSPSSVSTSVGDRVTITCRASQGISSWLAWYQQRPGKAPKLLIYAASSLQSGVPSRFSGSGSGTDFTLTISSLQPEDFATYFCQQATSFPFTFGPGTKVGIK
B16: 3.87.1.1 (antibody, V domains shown)
VH: QVQLVESGGGVVQPGRSLRLSCAASGFTFSSYGMHWVRQAPGKGLEWVAVIWYDRSNKYYADSVKGRFTISRDNSKNTLYLQMNSLRAEDTAVYYCAGGRSRGAFDYWGQGTLVTVSS
VL: DIQMTQSPSSVSASVGDRVTITCRASQGISSWLAWYQQKPGKAPKLLIFAASSLQSGVPSRFSGSGSGTDFTLTISSLQPEDFATYYCQRTNSFPRTFGQGTKVEIK
B17: 3.625.1.7 (antibody, V domains shown)
VH: QVQLVESGGGVVQPGRSLRLSCAASGFTFSSYGMHWVRQAPGKGLEWVAVIWYDRSNKYYADSVKGRFTISRDNSKNTLYLQMDSLRAEDTAVYYCAGGRSRGAFDYWGQGTLVTVSS
VL: DIQMTQSPSSVSASVGDRVTITCRASQGISSWLAWYQQKPGKAPKLLIYAASSLQSGVPSRFSGSGSGTDFTLTISSLQPEDFATYYCQRTNSFPRTFGQGTKVEIK
B18: 3.457.3.1 (antibody, V domains shown)
VH: QVQLVESGGGVVQPGRSLRLSCAASGFTFSSYGMHWVRQAPGKGLEWVAVIWYDRSNKYYADSVKGRFTISRDNSKNTLYLQMNSLRAEDTAVYYCAGGRSRGAFDFWGQGTLVTVSS
VL: DIQMTQSPSSVSASVGDRVTITCRASQGISSWLAWYQQKAGKAPKLLIYSASSLQSGVPSRFSGSGSGTDFTLTISSLQPEDFATYYCQRTNSFPRTFGQGTKVEIK
B19: 3.772.2 (antibody, V domains shown)
VH: QVQLVESGGGVVQPGRSLRLSCAASGFTFSSYGMHWVRQAPGKGLEWVAVIWYDRSNKYYADSVKGRFTISRDNSKNTLYLQMNSLRAEDTAVYYCAGGRSRGAFDFWGQGTLVTVSS
VL: DIQMTQSPSSVSASVGDRVTITCRASQDISSWLAWYQQKAGKAPKLLIYAASSLQSGVPSRFSGSGSGTDFTLTISSLQPEDFATYYCQRTNSFPRTFGQGTKVEIK
B20: 3.472.1.1 (antibody, V domains shown)
VH: QVQLVESGGGVVQPGRSLRLSCAASGFTFSSYGMHWVRQAPGKGLEWVAVIWYDRSNKYYVDSVKGRFTISRDNSKNTLYLQMNSLRAEDTAVYYCAGGRSRGAFDYWGQGTLVTVSS
VL: DIQMTQSPSSVSASVGDRVTITCRASQDISSWLAWYQQKPGKAPKLLIFAASSLQSGVPSRFSGSGSGTDFTLTISSLQPEDFATYYCQRTSSFPRTFGQGTKVEIK
B21: 3.805.1.3 (antibody, V domains shown)
VH: QVQLVESGGGVVQPGRSLRLSCAASGFTFSSYGMHWVRQAPGKGLEWVAVIWYDRSNKYYADSVKGRFTISRDNSKNTLYLQMNSLRAEDTAVYYCAGGRSRGAFDYWGQGTLVTVSS
VL: DIQMTQSPSSVSASVGDRVTITCRASQGISSWLAWYQQKPGKAPNLLIYAASSLQSGVPSRFSGSGSGTDFTLTISSLQPEDFATYYCQRTNNFPRTFGQGTKVEIK

Some results are limits rather than exact numbers.

The first experiment deals with PDGFR-alpha on MG-63 cells (human, UniProt P16234 24-1089). Description: cell-based or functional assay.
Chain of PDGFR-alpha on MG-63 cells (P16234 24-1089): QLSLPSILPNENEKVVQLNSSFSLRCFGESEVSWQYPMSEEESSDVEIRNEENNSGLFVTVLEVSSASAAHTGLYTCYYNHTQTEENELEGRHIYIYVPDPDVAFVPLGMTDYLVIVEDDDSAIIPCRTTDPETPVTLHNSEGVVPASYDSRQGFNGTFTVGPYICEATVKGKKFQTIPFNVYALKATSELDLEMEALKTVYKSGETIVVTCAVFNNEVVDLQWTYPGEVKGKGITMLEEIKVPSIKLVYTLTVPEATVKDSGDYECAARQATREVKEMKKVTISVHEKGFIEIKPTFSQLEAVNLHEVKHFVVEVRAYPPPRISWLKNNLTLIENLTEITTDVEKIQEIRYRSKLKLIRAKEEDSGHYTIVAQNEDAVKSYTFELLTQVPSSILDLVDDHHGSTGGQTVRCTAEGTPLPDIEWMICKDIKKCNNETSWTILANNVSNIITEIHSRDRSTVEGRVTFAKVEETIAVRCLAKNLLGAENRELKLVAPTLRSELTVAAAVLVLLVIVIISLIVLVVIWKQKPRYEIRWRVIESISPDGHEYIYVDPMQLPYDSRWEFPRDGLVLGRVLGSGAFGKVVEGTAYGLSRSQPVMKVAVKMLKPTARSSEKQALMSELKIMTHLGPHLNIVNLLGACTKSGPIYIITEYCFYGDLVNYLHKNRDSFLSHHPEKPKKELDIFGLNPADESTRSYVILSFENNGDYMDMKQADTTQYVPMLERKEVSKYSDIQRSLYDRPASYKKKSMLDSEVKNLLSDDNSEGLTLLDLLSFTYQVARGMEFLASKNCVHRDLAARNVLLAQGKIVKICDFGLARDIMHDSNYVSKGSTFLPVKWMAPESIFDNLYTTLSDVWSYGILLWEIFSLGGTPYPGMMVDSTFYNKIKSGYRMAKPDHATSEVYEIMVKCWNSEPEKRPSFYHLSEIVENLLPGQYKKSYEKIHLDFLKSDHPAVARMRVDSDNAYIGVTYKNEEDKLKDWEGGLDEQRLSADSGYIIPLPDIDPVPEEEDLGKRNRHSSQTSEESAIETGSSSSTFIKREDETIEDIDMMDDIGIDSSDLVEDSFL
As to B1, the “Average pTyr Inhibition” value is > 100%. On the same count and under the same terms, with B2 the figure was > 100%. As for B3, the “Average pTyr Inhibition” value was > 100%. Still for that read-out and setting: the figure for B4 is > 100%; for B5 it is > 100%; for B6 it is 95%.

For the next experiment, the target named is PDGFR-alpha on human osteosarcoma MG-63 cells (human, UniProt P16234 24-1089). Nature of the experiment: cell-based or functional assay.
Chain of PDGFR-alpha on human osteosarcoma MG-63 cells (P16234 24-1089): as above
Take B7: the “Proliferation Assay: IC50 ng/ml (1-6-06)” value was 2.2 ng/mL and the “pTyr Assay: % Inhibition @ 2 µg/ml” value came to 31%. In the same order, the values of B8 are 150 ng/mL and 26%. In the same order, the values of B9 are > 10000 ng/mL and 77%. On to B10, for which the “Proliferation Assay: IC50 ng/ml (1-6-06)” value is > 10000 ng/mL and the “pTyr Assay: % Inhibition @ 2 µg/ml” value worked out at 65%. B11: the “pTyr Assay: % Inhibition @ 2 µg/ml” value was -9%.

With B12, the “pTyr Assay: % Inhibition @ 2 µg/ml” value is -3%. Regarding B13, the “Proliferation Assay: IC50 ng/ml (1-6-06)” value came to 61.9 ng/mL and the “pTyr Assay: % Inhibition @ 2 µg/ml” value was 84%. Consider B14, for which the “Proliferation Assay: IC50 ng/ml (1-6-06)” value was > 10000 ng/mL and the “pTyr Assay: % Inhibition @ 2 µg/ml” value turned out to be 74%. In the same order, the values of B15 are 4600 ng/mL and 92%. For the molecule B16, the “Proliferation Assay: IC50 ng/ml (1-6-06)” value came out at 6240 ng/mL and the “pTyr Assay: % Inhibition @ 2 µg/ml” value came out at 69%. As to B17, the “Proliferation Assay: IC50 ng/ml (1-6-06)” value was 3820 ng/mL and the “pTyr Assay: % Inhibition @ 2 µg/ml” value was -3%. Regarding B18, the “pTyr Assay: % Inhibition @ 2 µg/ml” value was 85%. As to B19, the “Proliferation Assay: IC50 ng/ml (1-6-06)” value turned out to be 168 ng/mL and the “pTyr Assay: % Inhibition @ 2 µg/ml” value came out at 56%.

B20: the “pTyr Assay: % Inhibition @ 2 µg/ml” value worked out at 61%. Take B21: the “Proliferation Assay: IC50 ng/ml (1-6-06)” value was determined as 1020 ng/mL and the “pTyr Assay: % Inhibition @ 2 µg/ml” value was 58%.
